The assay has as its target Su(H)^wt-myc (Suppressor of Hairless, wildtype, pcDNA3.1) (D. melanogaster) (UniProt P28159).

The values that follow come from PMC9604145.

Sequence of UniProt P28159 (P28159 whole entry): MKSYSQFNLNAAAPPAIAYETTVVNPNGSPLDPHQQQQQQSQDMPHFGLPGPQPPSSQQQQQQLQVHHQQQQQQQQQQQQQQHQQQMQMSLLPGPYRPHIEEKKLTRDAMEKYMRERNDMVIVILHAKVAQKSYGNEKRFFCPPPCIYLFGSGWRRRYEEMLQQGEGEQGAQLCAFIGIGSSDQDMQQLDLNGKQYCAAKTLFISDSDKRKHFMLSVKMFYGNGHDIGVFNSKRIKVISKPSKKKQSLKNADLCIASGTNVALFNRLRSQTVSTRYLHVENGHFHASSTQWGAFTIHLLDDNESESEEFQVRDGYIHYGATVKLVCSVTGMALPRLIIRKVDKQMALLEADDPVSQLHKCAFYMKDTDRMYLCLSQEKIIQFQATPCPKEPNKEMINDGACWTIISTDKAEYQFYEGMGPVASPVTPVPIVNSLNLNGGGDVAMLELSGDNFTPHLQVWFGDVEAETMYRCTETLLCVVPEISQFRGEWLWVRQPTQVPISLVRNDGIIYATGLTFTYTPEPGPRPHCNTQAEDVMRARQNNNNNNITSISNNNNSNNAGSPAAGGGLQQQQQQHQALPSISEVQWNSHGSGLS

Regarding “ICN^RAMANK (pcDNA-ICN-RAMANK) (domain or fragment)”, the Su(H)^wt-myc protein level (Western blot, relative to beta-tubulin) 0-6 h after cycloheximide in HeLa RBPJ^KO cells co-expressing ICN^RAMANK (% of the induced protein) stood at 70.
